The results in this text go back to the Human Domainome abundance scans (Beltran et al. 2025).

± gives the uncertainty stated by the source.

B1: Tumor protein 63, residues 545 to 610; numbered along this chain, Q9H3D4 (parent)
chain: TDCSIVSFLARLGCSSCLDYFTTQGLTTIYQIEHYSMDDLASLKIPEQFRHAIWKGILDHRQLHEF

The data set covers variants of B1. Kind of data set: abundance fitness (aPCA) (normalised: wild type 0, dead -1); higher = more abundant; growth selection in yeast, the domain comes from the species named. The note with it: Homo sapiens.
As to TDCSIVSFLARLGCSSCLDYFTTQGLTTIYVIEHYSMDDLASLKIPEQFRHAIWKGILDHRQLHEF, the abundance fitness was -0.841 ± 0.051. As for TDCSIVSFLARLGCSSCLDYFTTQGLTTIYLIEHYSMDDLASLKIPEQFRHAIWKGILDHRQLHEF, the abundance fitness is -0.431 ± 0.034. The value for TDCSIVSFLARLGCSSCLDYFTTQGLTTIYGIEHYSMDDLASLKIPEQFRHAIWKGILDHRQLHEF was -0.274 ± 0.031; that for TDCSIVSFLARLGCSSCLDYFTTQGLTTIYHIEHYSMDDLASLKIPEQFRHAIWKGILDHRQLHEF was -0.047 ± 0.028; that for TDCSIVSFLARLGCSSCLDYFTTQGLTTIYDIEHYSMDDLASLKIPEQFRHAIWKGILDHRQLHEF was -0.019 ± 0.035. With TDCSIVSFLARLGCSSCLDYFTTQGLTTIYCIEHYSMDDLASLKIPEQFRHAIWKGILDHRQLHEF, the abundance fitness was -0.159 ± 0.033.

For the variant TDCSIVSFLARLGCSSCLDYFTTQGLTTIYEIEHYSMDDLASLKIPEQFRHAIWKGILDHRQLHEF, the abundance fitness was -0.03 ± 0.051. Take TDCSIVSFLARLGCSSCLDYFTTQGLTTIYYIEHYSMDDLASLKIPEQFRHAIWKGILDHRQLHEF: the abundance fitness is -0.721 ± 0.039. In the case of TDCSIVSFLARLGCSSCLDYFTTQGLTTIYWIEHYSMDDLASLKIPEQFRHAIWKGILDHRQLHEF, the abundance fitness was -0.812 ± 0.12. As for TDCSIVSFLARLGCSSCLDYFTTQGLTTIYPIEHYSMDDLASLKIPEQFRHAIWKGILDHRQLHEF, the figure is -0.737 ± 0.044. The value for TDCSIVSFLARLGCSSCLDYFTTQGLTTIYAIEHYSMDDLASLKIPEQFRHAIWKGILDHRQLHEF was -0.108 ± 0.031; that for TDCSIVSFLARLGCSSCLDYFTTQGLTTIYIIEHYSMDDLASLKIPEQFRHAIWKGILDHRQLHEF was -0.86 ± 0.045.

TDCSIVSFLARLGCSSCLDYFTTQGLTTIYFIEHYSMDDLASLKIPEQFRHAIWKGILDHRQLHEF: the abundance fitness was -0.695 ± 0.031. Turning to TDCSIVSFLARLGCSSCLDYFTTQGLTTIYKIEHYSMDDLASLKIPEQFRHAIWKGILDHRQLHEF, the abundance fitness was -0.296 ± 0.064. On to TDCSIVSFLARLGCSSCLDYFTTQGLTTIYRIEHYSMDDLASLKIPEQFRHAIWKGILDHRQLHEF, for which the abundance fitness was -0.427 ± 0.038. On to TDCSIVSFLARLGCSSCLDYFTTQGLTTIYNIEHYSMDDLASLKIPEQFRHAIWKGILDHRQLHEF, for which the abundance fitness was -0.133 ± 0.02. With TDCSIVSFLARLGCSSCLDYFTTQGLTTIYSIEHYSMDDLASLKIPEQFRHAIWKGILDHRQLHEF, the abundance fitness was -0.093 ± 0.021. Regarding TDCSIVSFLARLGCSSCLDYFTTQGLTTIYQLEHYSMDDLASLKIPEQFRHAIWKGILDHRQLHEF, the abundance fitness was -0.062 ± 0.026.

For TDCSIVSFLARLGCSSCLDYFTTQGLTTIYQWEHYSMDDLASLKIPEQFRHAIWKGILDHRQLHEF, the abundance fitness is -0.898 ± 0.051.

For the variant TDCSIVSFLARLGCSSCLDYFTTQGLTTIYQHEHYSMDDLASLKIPEQFRHAIWKGILDHRQLHEF, the abundance fitness was -0.876 ± 0.24. As for TDCSIVSFLARLGCSSCLDYFTTQGLTTIYQFEHYSMDDLASLKIPEQFRHAIWKGILDHRQLHEF, the abundance fitness is -0.209 ± 0.068.

Turning to TDCSIVSFLARLGCSSCLDYFTTQGLTTIYQMEHYSMDDLASLKIPEQFRHAIWKGILDHRQLHEF, the abundance fitness was -0.169 ± 0.032. As for TDCSIVSFLARLGCSSCLDYFTTQGLTTIYQKEHYSMDDLASLKIPEQFRHAIWKGILDHRQLHEF, the figure is -0.9 ± 0.14; as for TDCSIVSFLARLGCSSCLDYFTTQGLTTIYQGEHYSMDDLASLKIPEQFRHAIWKGILDHRQLHEF, -0.832 ± 0.037. The value for TDCSIVSFLARLGCSSCLDYFTTQGLTTIYQAEHYSMDDLASLKIPEQFRHAIWKGILDHRQLHEF was -0.672 ± 0.035. As for TDCSIVSFLARLGCSSCLDYFTTQGLTTIYQEEHYSMDDLASLKIPEQFRHAIWKGILDHRQLHEF, the figure is -0.925 ± 0.11. As to TDCSIVSFLARLGCSSCLDYFTTQGLTTIYQTEHYSMDDLASLKIPEQFRHAIWKGILDHRQLHEF, the abundance fitness is -0.55 ± 0.044. As for TDCSIVSFLARLGCSSCLDYFTTQGLTTIYQCEHYSMDDLASLKIPEQFRHAIWKGILDHRQLHEF, the abundance fitness was -0.249 ± 0.046. As to TDCSIVSFLARLGCSSCLDYFTTQGLTTIYQNEHYSMDDLASLKIPEQFRHAIWKGILDHRQLHEF, the abundance fitness was -0.841 ± 0.1. Take TDCSIVSFLARLGCSSCLDYFTTQGLTTIYQREHYSMDDLASLKIPEQFRHAIWKGILDHRQLHEF: the abundance fitness is -1.01 ± 0.06. As for TDCSIVSFLARLGCSSCLDYFTTQGLTTIYQSEHYSMDDLASLKIPEQFRHAIWKGILDHRQLHEF, the figure is -1.01 ± 0.088; as for TDCSIVSFLARLGCSSCLDYFTTQGLTTIYQQEHYSMDDLASLKIPEQFRHAIWKGILDHRQLHEF, -0.931 ± 0.095; as for TDCSIVSFLARLGCSSCLDYFTTQGLTTIYQPEHYSMDDLASLKIPEQFRHAIWKGILDHRQLHEF, -0.953 ± 0.1. As for TDCSIVSFLARLGCSSCLDYFTTQGLTTIYQIEHCSMDDLASLKIPEQFRHAIWKGILDHRQLHEF, the figure is -0.099 ± 0.034. As to TDCSIVSFLARLGCSSCLDYFTTQGLTTIYQIEHISMDDLASLKIPEQFRHAIWKGILDHRQLHEF, the abundance fitness was -0.257 ± 0.061. For the variant TDCSIVSFLARLGCSSCLDYFTTQGLTTIYQIEHHSMDDLASLKIPEQFRHAIWKGILDHRQLHEF, the abundance fitness was -0.103 ± 0.034. For the variant TDCSIVSFLARLGCSSCLDYFTTQGLTTIYQIEHGSMDDLASLKIPEQFRHAIWKGILDHRQLHEF, the abundance fitness is -0.635 ± 0.023. For the variant TDCSIVSFLARLGCSSCLDYFTTQGLTTIYQIEHASMDDLASLKIPEQFRHAIWKGILDHRQLHEF, the abundance fitness was -0.131 ± 0.026. The value for TDCSIVSFLARLGCSSCLDYFTTQGLTTIYQIEHFSMDDLASLKIPEQFRHAIWKGILDHRQLHEF was -0.012 ± 0.038. As for TDCSIVSFLARLGCSSCLDYFTTQGLTTIYQIEHDSMDDLASLKIPEQFRHAIWKGILDHRQLHEF, the figure is -0.698 ± 0.088; as for TDCSIVSFLARLGCSSCLDYFTTQGLTTIYQIEHESMDDLASLKIPEQFRHAIWKGILDHRQLHEF, -0.706 ± 0.04.
